Results from patent US20180319855A1, “GENETICALLY MUTATED AEQUORIN-BASED BIOSENSORS WITH EXTRA SENSITIVITY TO CALCIUM AND IMPROVED BIOLUMINESCENCE INTENSITY” (CENTRE NATIONAL DE LA RECHERCHE SCIENTIFIQUE (CNRS), priority 2015, published 2018).

Key:
[1] = Thermostability: relative bioluminescence activity after 30 min incubation; format: physicochemical; conditions: CLZ-f
Outline: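 Purified photoprotein was reconstituted with CLZ-f and read for total counts with saturating calcium (50 mM Tris-HCl, 100 mM CaCl2, pH 7.5). It was then held at 30 to 40 °C for 30 min, re-equilibrated for 15 min and read again. Activity is 2nd/1st counts ×100.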

[2] = system: pyramidal neurons of mouse neocortical slices; assay: Bioluminescence Ca2+ imaging of transduced neocortical slices in Mg2+-free ACSF; format: cell-based; conditions: native coelenterazine, 25 Hz
Description: Recombinant Sindbis viruses were prepared and used to express Redquorin mutants and GA in neurons of brain slices as described (Drobac et al., 2010), (Tricoire and Lambolez, 2014). The coding sequences of Redquorin mutants and GA were first subcloned in the plasmid pSinRep5 (Invitrogen) upstream to the polyA signal. The resulting pSinRep5 plasmids encoding the fusion protein sensors as well as the helper plasmid pDH26S (Invitrogen) were then submitted to in vitro transcription to prepare capped RNA using the Megascript SP6 kit (Ambion). […]
Bioluminescence imaging was performed at room temperature using an intensified CDD video camera (ICCD225; Photek) controlled by the IFS32 software (Photek), and mounted on an upright microscope (BX51WI, Olympus) equipped with water immersion objectives ×10 (NA=0.3) and ×20 (NA=0.95). Prior to bioluminescence imaging, fluorescence images of GA- or Redquorin-transduced slices were acquired in the “bright field” mode of the camera using GFP (Semrock) or Cy3ET (Chroma) filter sets. […]
The transduced acute brain slices expressing the sensors were then perfused with artificial cerebrospinal fluid (ACSF) without Mg^2+. […] Before the threshold for depolarization, the recorded imaging intensity was very weak consistent with the concept of low background luminescence of photoproteins. […]

B1: Redq/Q159T: aporedquorin (tdTomato-aequorin fusion) mutant Q159T (SEQ ID NO:22) (protein)
chain: MVSKGEEVIKEFMRFKVRMEGSMNGHEFEIEGEGEGRPYEGTQTAKLKVTKGGPLPFAWDILSPQFMYGSKAYVKHPADIPDYKKLSFPEGFKWERVMNFEDGGLVTVTQDSSLQDGTLIYKVKMRGTNFPPDGPVMQKKTMGWEASTERLYPRDGVLKGEIHQALKLKDGGHYLVEFKTIYMAKKPVQLPGYYYVDTKLDITSHNEDYTIVEQYERSEGRHHLFLGHGTGSTGSGSSGTASSEDNNMAVIKEFMRFKVRMEGSMNGHEFEIEGEGEGRPYEGTQTAKLKVTKGGPLPFAWDILSPQFMYGSKAYVKHPADIPDYKKLSFPEGFKWERVMNFEDGGLVTVTQDSSLQDGTLIYKVKMRGTNFPPDGPVMQKKTMGWEASTERLYPRDGVLKGEIHQALKLKDGGHYLVEFKTIYMAKKPVQLPGYYYVDTKLDITSHNEDYTIVEQYERSEGRHHLFLSGFDNPRWIGRHKHMFNFLDVNHNGKISLDEMVYKASDIVINNLGATPEQAKRHKDAVEAFFGGAGMKYGVETDWPAYIEGWKKLATDELEKYAKNEPTLIRIWGDALFDIVDKDQNGAITLDEWKAYTKAAGIIQSSEDCEETFRVCDIDESGTLDVDEMTRQHLGFWYTMDPACEKLYGGAVP
modifications: mutant aequorin
Thermostability, luminescence activity relative to wt-aequorin ([1]; 30° C. for 30 min): 0.90
Thermostability, luminescence activity relative to wt-aequorin ([1]; 40° C. for 30 min): 0.92
bioluminescence imaging response to Ca2+ transients [2]: performed as well as its analogue GA

B2: Redq/Q159D: aporedquorin (tdTomato-aequorin fusion) mutant Q159D (SEQ ID NO:21) (protein)
chain: MVSKGEEVIKEFMRFKVRMEGSMNGHEFEIEGEGEGRPYEGTQTAKLKVTKGGPLPFAWDILSPQFMYGSKAYVKHPADIPDYKKLSFPEGFKWERVMNFEDGGLVTVTQDSSLQDGTLIYKVKMRGTNFPPDGPVMQKKTMGWEASTERLYPRDGVLKGEIHQALKLKDGGHYLVEFKTIYMAKKPVQLPGYYYVDTKLDITSHNEDYTIVEQYERSEGRHHLFLGHGTGSTGSGSSGTASSEDNNMAVIKEFMRFKVRMEGSMNGHEFEIEGEGEGRPYEGTQTAKLKVTKGGPLPFAWDILSPQFMYGSKAYVKHPADIPDYKKLSFPEGFKWERVMNFEDGGLVTVTQDSSLQDGTLIYKVKMRGTNFPPDGPVMQKKTMGWEASTERLYPRDGVLKGEIHQALKLKDGGHYLVEFKTIYMAKKPVQLPGYYYVDTKLDITSHNEDYTIVEQYERSEGRHHLFLSGFDNPRWIGRHKHMFNFLDVNHNGKISLDEMVYKASDIVINNLGATPEQAKRHKDAVEAFFGGAGMKYGVETDWPAYIEGWKKLATDELEKYAKNEPTLIRIWGDALFDIVDKDQNGAITLDEWKAYTKAAGIIQSSEDCEETFRVCDIDESGDLDVDEMTRQHLGFWYTMDPACEKLYGGAVP
modifications: mutant aequorin
Thermostability, luminescence activity relative to wt-aequorin ([1]; 30° C. for 30 min): 0.91
Thermostability, luminescence activity relative to wt-aequorin ([1]; 40° C. for 30 min): 0.95
bioluminescence imaging response to Ca2+ transients [2]: significant signal-over-background ratio
